For experiment [1], the target named is T1, soluble recombinant DSG2 (Homo sapiens, UniProt Q14126).
T1 construct: Western blot using soluble recombinant DSG2 as a probe; purchased Leinco Technologies, Inc. (St. Louis, MO)
T1 sequence (Q14126 50-609 limits assumed): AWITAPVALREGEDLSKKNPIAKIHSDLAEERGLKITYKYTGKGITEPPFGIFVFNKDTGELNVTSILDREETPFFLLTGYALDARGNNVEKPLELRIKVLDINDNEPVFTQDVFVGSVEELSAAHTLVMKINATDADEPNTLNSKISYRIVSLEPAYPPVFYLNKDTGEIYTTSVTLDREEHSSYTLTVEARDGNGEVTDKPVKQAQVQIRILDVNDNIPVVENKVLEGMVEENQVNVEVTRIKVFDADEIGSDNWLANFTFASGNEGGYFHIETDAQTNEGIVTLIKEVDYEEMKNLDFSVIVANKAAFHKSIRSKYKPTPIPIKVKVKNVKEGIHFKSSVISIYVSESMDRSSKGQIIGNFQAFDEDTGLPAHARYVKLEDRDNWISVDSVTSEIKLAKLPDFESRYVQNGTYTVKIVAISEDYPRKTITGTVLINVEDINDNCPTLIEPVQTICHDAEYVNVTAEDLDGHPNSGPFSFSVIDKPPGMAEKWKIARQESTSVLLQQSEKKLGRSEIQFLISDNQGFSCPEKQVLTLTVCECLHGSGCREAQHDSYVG
Briefly: Western blot of dimeric Ad3 fiber knob mutants with soluble recombinant DSG2 as probe. The format is binding. The following applies: dimerized knob mutants compared to JO-1. The text has this: FIG. 1A-1F. Residues found to be critically involved in binding to DSG2. FIG. 1A) Shown are the amino acid sequences of the Ad3 and Ad14p1 fiber knob. Beta sheets present in the Ad3 knob (PDB accession number 1H7Z_A) and Ad14 knob (PDB: 3F0Y_A) are indicated by lines. Black arrows indicate residues within the Ad3 fiber knob which, when mutated individually, ablate or reduce binding to DSG2. […] FIG. 1B) Schematic structure of dimeric Ad3 fiber knob mutants. The fiber knob domain and one shaft motif was fused through a flexible linker to a homodimerizing K-coil domain (41). The proteins are self-dimerizing and can be purified by His-Ni-NTA affinity chromatography. FIG. 1C-FIG. 1F) Analysis of binding of dimeric Ad3 fiber knob mutants to soluble DSG2. FIG. 1C and FIG. 1D) Coomassie staining. 10 μg of purified Ad3 fiber knob (unboiled) were loaded per lane. Trimeric forms of the fiber knobs are indicated by an arrow. The gel contained SDS and the loading buffer containing DTT, which caused the disassembly of dimers of trimeric fiber knobs as previously reported (41). FIG. 1E and FIG. 1F): Western blot using soluble recombinant DSG2 as a probe, followed by anti-DSG2-mAb and anti-mouse IgG-HRP. For comparison, JO-1 (0.5 μg/lane) is shown. The Western blots were scanned and signals were quantified.
Western Blot: Mini-PROTEAN precast gels (BIO-RAD, Hercules, CA) with 4-15% gradient polyacrylamide were used. A total of 1 μg protein mixed with 2× loading buffer (10 mM Tris-HCl, pH6.8, 200 mM DTT, 4% SDS, 20% glycerol, 0.2% bromophenol blue) was loaded per lane. Samples were either boiled (B) for 5 min or loaded unboiled (UB). The following running buffer was used: 25 mM Tris, pH8.3, 0.192 M glycine, 0.1% SDS. After electrophoresis, proteins were transferred to nitrocellulose and incubated with recombinant human DSG2 protein and anti-DSG2 antibodies as described previously (42). The Western blots were scanned and quantified using the ImageJ 1.32 software (National Institutes of Health, Bethesda, MD). JO-1 band intensity was set as 100%. […]
Background: A western blot detects proteins with antibodies after separation by electrophoresis.

The target in experiment [2] is T2, DSG2 (Homo sapiens, UniProt Q14126).
T2 construct: Western blot using soluble recombinant DSG2 as a probe; purchased Leinco Technologies, Inc. (St. Louis, MO)
T2 sequence (Q14126 50-609 limits assumed): T1 sequence (Q14126 50-609 limits assumed)
Briefly: Surface plasmon resonance of Ad3 fiber knobs on immobilized DSG2. As to conditions: affinity to DSG2. The format is binding. The method, then:
FIG. 7A-7B. SPR analysis of non-dimerized Ad3 fiber knob interactions with DSG2. FIG. 7A) DSG2 was immobilized on sensorchips, and background was automatically subtracted from the control flow cell. The Ad3 fiber knobs (w/o dimerization domain: “noDD”) were injected for 3 minutes at 2.5 μg/ml followed by a 2.5 minutes dissociation period. FIG. 7B) Summary of SPR data. […] The extracted data are resumed in the table. Wt=Ad3 fiber knob without mutations FIG. 8A-8G. Electron microscopy and 3D structure of Ad3 fiber knob mutant JO-2.
Surface Plasmon Resonance: Acquisitions were done on a BIAcore 3000 instrument. HBS-N (GE-Healthcare, Pittsburgh, PA) supplemented with 2 mM CaCl2) was used as running buffer in all experiments at a flow rate of 5 [l/min. Immobilization on CM4 sensorchip (BIAcore) was performed using DSG2 at 10 μg/ml diluted in 10 mM Acetate buffer pH 4.5 injected for 10 minutes on ethyl(dimethylaminopropyl) carbodiimide (EDC)/N-Hydroxysuccinimide (NHS) activated flow-cell. A control flow-cell was activated by (EDC/NHS) and inactivated by ethanolamine. Different concentrations of Ad3 fiber knob proteins were injected for 3 minutes association followed by 2.5 minutes dissociation time, and the signal was automatically subtracted from the background of the ethanolamine deactivated EDC-NHS flow cell. Kinetic and affinity constants were calculated using the BIAeval software.
(In general: SPR reads the build-up and loss of mass on a sensor chip optically.)

Substitutions are numbered along the chain they refer to. Names may count otherwise.

As usually defined, the Kd is the free concentration of one partner at which half of the binding sites on the other are occupied at equilibrium, for simple one-to-one binding. Lower therefore signals higher affinity.

B1: D261N (protein)
chain: MKVSALKEKVSALKEKVSALKEKVSALKEKVSALKEGSGGGSGGGSGGGSNSIALKNNTLWTGPKPEANCIIEYGKQNPDSKLTLILVKNGGIVNGYVTLMGASDYVNTLFKNKNVSINVELYFDATGHILPDSSSLKTDLELKYKQTADFSARGFMPSTTAYPFVLPNAGTHNENYIFGQCYYKASNGALFPLEVTVMLNKRLPDSRTSYVMTFLWSLNAGLAPETTQATLITSPFTFSYIREDD
Turning to B1, the “DSG2 binding in Western blot, in words” value in experiment [1] is listed as “almost completely ablated”.

B2: JO-4 (protein)
chain: B1 chain with Y177F, N188D
Take B2: the affinity in experiment [2], expressed as Kd, was 0.0114 µM.

For the origin of these results see patent US12466859B2, “Desmoglein 2 (DSG2) binding proteins and uses therefor” (UNIVERSITY OF WASHINGTON THROUGH ITS CENTER FOR …, priority 2013, dated 2025).
